Results from paper PMC9592637, “Functional characterization and transcriptional repression by Lacticaseibacillus paracasei DinJ-YafQ” (Applied Microbiology and Biotechnology, 2022).

What was measured:
[1] = test system: DinJ (Lacticaseibacillus paracasei 4366); experiment: EMSA; conditions: KDapp, Hill n 3.7 ± 0.2; salmon sperm DNA competitor; EMSA: 2 nM DNA, 128 ng salmon sperm DNA in 10 uL, 50 mM Tris-HCl pH 7.5, 50 mM KCl, 5% glycerol, room temperature 10 min, 6% native PAGE in TBE; RNAP …
[2] = biological target: the molecule itself; experiment: cross-linking; glutaraldehyde 0.1%, then SDS-PAGE; DinJ at 4 and 10 uM, DinJ-YafQ at 2 and 4 uM

Molecule	Kd [1] [nM]	stoichiometry N [2]
194-bp dinJ-yafQ promoter fragment	61	–
His-tagged DinJ (L. paracasei antitoxin DinJ, N-terminal hexa-His tag) (natural protein) MSNEKRETRLSIRIDPALKEAAQNVANDMGMDLSTAVNMFLAKIVKDHALPFTPTSLPAETLQALKEAKSSRVLKRYRTPEVMWKDLEV	–	2
